The target in data set [1] is T1, apelin receptor (Homo sapiens, UniProt P35414).
T1 construct: host or cells: human heart tissue
T1 sequence (P35414 1-380): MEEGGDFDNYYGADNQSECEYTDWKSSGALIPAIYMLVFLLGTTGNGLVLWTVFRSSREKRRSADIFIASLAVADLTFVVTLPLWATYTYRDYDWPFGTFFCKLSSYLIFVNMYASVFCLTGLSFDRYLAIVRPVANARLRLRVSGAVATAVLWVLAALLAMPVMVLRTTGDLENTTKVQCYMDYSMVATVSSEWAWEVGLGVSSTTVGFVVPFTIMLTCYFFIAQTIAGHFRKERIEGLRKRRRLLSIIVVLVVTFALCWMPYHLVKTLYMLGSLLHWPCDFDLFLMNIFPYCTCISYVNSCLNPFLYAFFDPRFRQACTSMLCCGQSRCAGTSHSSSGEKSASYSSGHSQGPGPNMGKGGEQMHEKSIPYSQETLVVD
The settings on record: human heart; cited from earlier work.

Data set [2] addresses T2, apelin receptor (AGTRL1) (Homo sapiens, UniProt P35414).
T2 construct: host or cells: CHO-K1
T2 sequence (P35414 1-380): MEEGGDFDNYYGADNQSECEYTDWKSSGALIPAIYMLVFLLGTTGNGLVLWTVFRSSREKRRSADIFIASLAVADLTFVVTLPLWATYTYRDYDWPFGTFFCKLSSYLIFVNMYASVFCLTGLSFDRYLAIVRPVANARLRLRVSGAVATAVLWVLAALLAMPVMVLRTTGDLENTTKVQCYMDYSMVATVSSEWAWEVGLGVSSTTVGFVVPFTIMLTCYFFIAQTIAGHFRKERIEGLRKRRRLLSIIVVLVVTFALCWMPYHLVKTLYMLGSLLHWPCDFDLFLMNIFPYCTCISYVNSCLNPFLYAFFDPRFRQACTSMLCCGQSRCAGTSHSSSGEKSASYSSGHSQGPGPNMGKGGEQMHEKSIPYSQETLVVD
Kind of data set: PathHunter beta-arrestin signaling assay. The format is cell-based. The note with it: PathHunter CHO-K1 AGTRL1 β-arrestin cells. As to the method: In this example, commercially available HitHunter® cAMP assay was used to determine the effect of apelin receptor agonists on Gai signaling, measured cAMP depletion. Next, commercially available PathHunter® beta-arrestin assay was used to determine the effect of apelin receptor agonists on beta-arrestin signaling. Additionally, the effect of apelin receptor agonists on ERK signaling was determined.
In a 384-well plate (Corning #3897), PathHunter® CHO-K1 AGTRL1 β-arrestin cells (Eurofins DiscoverX #93-0250C2) were seeded at 5×10^3 cells/well in 20 μL AssayComplete Cell Plating 2 Reagent (Eurofins DiscoverX #93-0563R2A) and were incubated overnight at 37° C. with 5% CO2. On the following day, the plate was treated with 5 μL/well of compounds serially diluted in 1×PBS+0.1% BSA buffer and was incubated for 1.5 hr at 37° C. with 5% CO2. Then, 12.5 μL/well of detection solution was added, prepared as instructed in the PathHunter® Detection Kit (Eurofins DiscoverX #93-0001), the plate was wrapped in foil, and was incubated at room temperature. Plates were read after 1-2 hr of incubation on a standard luminescence plate reader. In this assay, low levels of β-arrestin in cells were directly related to low luminescence signal. Using Four Parameter Logistic Regression for curve fitting, the raw data file was processed into S-shaped dose-response curves from which values, such as the EC50, Hill Slope, and Emax, were quantified.

Data set [3] is described as follows: Proteolysis during production detected using mass spectroscopy. The settings on record: proteolytic stability. In kind it is physicochemical. From the text: Proteolysis during production was detected using mass spectroscopy, which provides insights into the proteolytic stability of the apelin receptor agonists.
Data set [4] relates to APJ-eGFP fusion protein. Put plainly: Internalization assay, CHO-M1 cells expressing APJ-eGFP, high-content imaging. The format is cell-based. The arrangement: key: 0: No Internalization; >1000; 2: 100-1000; 3: 10-100; 4: <10. The settings on record: lowest concentration at which maximum internalization was observed; 0.914 nM to 2000 nM. As for the experimental part: In this example, the internalization of exemplary apelin receptor agonist was assessed. CHO-M1 cells expressing an APJ-eGFP fusion protein were stained and plated in a 96-well plate. Apelin receptor agonists were serially diluted and added to the wells at concentrations ranging from 0.914 nM to 2000 nM. The cells were later imaged using an Operetta CLS™ high-content analysis system. APJ-eGFP signal was measured in the membrane and cytoplasmic region, and the ratio of membrane signal to total signal was calculated (E ratio). An internalization score was assigned based on the lowest concentration of the compound at which maximum internalization was observed. The internalization score for each apelin receptor agonist was plotted against the EC50 values for cAMP signaling and beta-arrestin signaling as shown in FIG. 2 and FIG. 3.

For elabela-21, the “affinity for the apelin receptor” value in data set [1] is “nanomolar affinity”.

B1: ELA-D: Fc-linker fusion of elabela analogue KLRKHNCLQRRCMPLHQRVPFP (S17Q) (protein)
chain: MRAWIFFLLCLAGRALADKTHTSPPSPAPEAAGGPSVFLFPPKPKDTLMISRTPEVTCVVVDVSHEDPEVKFNWYVDGVEVHNAKTKPREEQYNSTYRVVSVLTVLHQDWLNGKEYKCKVSNKALPAPIEKTISKAKGQPREPQVYTLPPSREEMTKNQVNLTCLVKGFYPSDIAVEWESNGQPENNYKTTPPVLDSDGSFFLNSTLTVDKSRWQQGNVFSCSVMHEALHNHYTQKSLSLSPGKGGGGSGGGGSGGGGSKLRKHNCLQRRCMPLHQRVPFP
B1: the “beta-Arrestin EC50 (nM) Exp. 1” value in data set [2] is on record as “Weak”. In data set [3], the “Proteolysis During Production?” value was “No”. Besides, the “Internalization Score” value in data set [4] was 1 (>1000).

B2: ELA-J: Fc-linker fusion of elabela analogue KLRKHNCLQERCMPLHSRVPFP (R10E) (protein)
chain: MRAWIFFLLCLAGRALADKTHTSPPSPAPEAAGGPSVFLFPPKPKDTLMISRTPEVTCVVVDVSHEDPEVKFNWYVDGVEVHNAKTKPREEQYNSTYRVVSVLTVLHQDWLNGKEYKCKVSNKALPAPIEKTISKAKGQPREPQVYTLPPSREEMTKNQVNLTCLVKGFYPSDIAVEWESNGQPENNYKTTPPVLDSDGSFFLNSTLTVDKSRWQQGNVFSCSVMHEALHNHYTQKSLSLSPGKGGGGSGGGGSGGGGSKLRKHNCLQERCMPLHSRVPFP
For B2, the “beta-Arrestin EC50 (nM) Exp. 2” value in data set [2] (Exp. 2) is “Weak”. Moreover, the “Proteolysis During Production?” value in data set [3] is given as “Yes”.

B3: ELA-E: Fc-linker fusion of elabela analogue KLRKHNCLQRRCMPLHRRVPFP (S17R) (protein)
chain: MRAWIFFLLCLAGRALADKTHTSPPSPAPEAAGGPSVFLFPPKPKDTLMISRTPEVTCVVVDVSHEDPEVKFNWYVDGVEVHNAKTKPREEQYNSTYRVVSVLTVLHQDWLNGKEYKCKVSNKALPAPIEKTISKAKGQPREPQVYTLPPSREEMTKNQVNLTCLVKGFYPSDIAVEWESNGQPENNYKTTPPVLDSDGSFFLNSTLTVDKSRWQQGNVFSCSVMHEALHNHYTQKSLSLSPGKGGGGSGGGGSGGGGSKLRKHNCLQRRCMPLHRRVPFP
B3: in data set [2], the “beta-Arrestin EC50 (nM) Exp. 1” value is “Weak”. The “Proteolysis During Production?” value in data set [3] was “No”. In data set [4], the “Internalization Score” value was found to be 0.
